Measurements as given in patent publication US20060233788A1 (published 2006).
No end group written: not given here. *: point of attachment. Octanoyl = CCCCCCCC(=O)*

T1: peptide spanning amino acids 14-28 of human ghrelin (human)
T1 peptide: QRKESKKPPAKLQPR

T2: human ghrelin peptide spanning amino acids 4-20 (human)
T2 peptide: FLSPEHQRVQQRKESKK

T3: human ghrelin peptide 4-16 (human)
T3 peptide: FLSPEHQRVQQRK

T4: human ghrelin peptide 4-28 (human)
T4 peptide: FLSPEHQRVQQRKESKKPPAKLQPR

T5: human ghrelin peptide 18-28 (human)
T5 peptide: SKKPPAKLQPR

T6: human ghrelin peptide 13-19 (human)
T6 peptide: QQRKESK

T7: human ghrelin peptide 7-16 (human)
T7 peptide: PEHQRVQQRK

B1: full-length, acylated rat ghrelin (peptide, UniProt Q9QYH7 24-51, looked up)
peptide: GSSFLSPEHQKAQQRKESKKPPAKLQPR
modifications: also: acylated (position and acyl group not given here)
notes: mature; The UniProt entry is the precursor; the assay used the ghrelin peptide; also called rGhrelin
B2: Ghrelin (1-8, desacyl) (peptide)
peptide: GSSFLSPE
notes: also called hGhrelin (1-8 desacyl)
B3: full-length human ghrelin (1-28) acylated with an octanoyl group on the serine at position 3 (peptide)
peptide: GSSFLSPEHQRVQQRKESKKPPAKLQPX
modifications: octanoyl group on the serine at position 3
notes: the 1-28 form has Arg at 28; also called hGhrelin; acylated hGhrelin
B4: Fab 1181 (Fab, V domains shown)
VH: QVQLQQSGAELVRSGASVKLSCTASGFNIKDYFMQWVKQRPEQGLEWIGWIDPENGETGYAPKFQGKATMTADTASNTAYLQLSSLTSEDTALYYCNAPSVVAKYFDVWGAGTTVTVSS
VL: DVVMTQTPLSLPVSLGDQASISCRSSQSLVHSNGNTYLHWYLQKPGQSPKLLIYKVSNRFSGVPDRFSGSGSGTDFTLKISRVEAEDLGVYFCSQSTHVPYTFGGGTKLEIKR
notes: Mouse Fab from an Omniclonal library (Biosite); kappa light chain (detected and captured with goat anti-mouse kappa); the HCVR amino acid entry is 12
B5: Fab 1621 (Fab, V domains shown)
VH: QVQLQQSGAELVRSGASVKLSCTASGFNIKDYFVQWVKQRPEQGLEWIGWIDPENGETGYAPKFQGKATMTADTASNTAYLQLSSLTSEDTALYFCNAPSVVAKYFDVWGAGTTVTVSS
VL: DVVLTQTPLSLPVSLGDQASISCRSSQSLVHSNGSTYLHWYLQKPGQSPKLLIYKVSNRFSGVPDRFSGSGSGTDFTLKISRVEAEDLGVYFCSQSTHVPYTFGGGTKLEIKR
notes: Mouse Fab, kappa light chain
B6: Ghrelin (1-8 acyl) (peptide)
peptide: GSS(Octanoyl)FLSPE
notes: also called hGhrelin (1-8 acyl); Human 1-8 acyl
B7: Ghrelin (9-28) (peptide)
peptide: HQRVQQRKESKKPPAKLQPR
notes: also called hGhrelin (9-28)

Assays:
[1] = molecular target: T8, GHS-R1a human ghrelin receptor (human, UniProt Q92847 1-366); test: FLIPR calcium assay, AV12 cells expressing human GHS-R1a
T8 construct: whole, on cells; also called GHS-1a receptor; growth hormone secretagogue receptor

[2] = molecular target: B5; test: competitive ELISA, Fab 1621 on coated BSA-hGhrelin; compound 0 (baseline, no compound)
Experimental: (§1) The plate was incubated at 4° C. overnight. The wells are aspirated and washed twice with washing buffer (20 mM Tris-Cl, pH 7.4, 0.15 M NaCl, 0.1% Tween 20). Compounds (i.e., human ghrelin or ghrelin analogs) are diluted into antibody solution. […] The compound concentration is varied as listed in Tables 2-5 below, but the Fab concentration is kept constant at 0.1 μg/ml in blocking solution (10 mg/ml BSA in wash buffer). […] The plates are incubated for 1 hour at room temperature. The wells are then washed three times with washing buffer.
(§2) Peroxidase-conjugated secondary antibody (50 μl goat anti-mouse kappa HRP (Southern Biotech), diluted 1:2000 in blocking buffer) is added to each well and incubated for 1 hour at room temperature. The wells are then washed 4 times with washing buffer. Fifty microliters of chromogenic substrate (i.e., OPD substrate) is added to each well and allowed to develop at room temperature for 10 minutes. The reaction is stopped by adding 100 μl 1N HCl to each well. The absorbance of the wells is read at 490 nm.
(§3) The average absorbance from triplicate wells is determined.
Target sequence in this assay (VL, as listed by the source limits assumed): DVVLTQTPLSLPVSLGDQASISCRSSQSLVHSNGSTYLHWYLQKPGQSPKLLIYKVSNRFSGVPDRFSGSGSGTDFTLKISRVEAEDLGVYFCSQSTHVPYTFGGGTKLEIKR

[3] = molecular target: B4; test: competitive ELISA, Fab 1181 on coated BSA-hGhrelin; compound 5 ug/ml
Experimental: as §1, §2, §3
Target sequence in this assay (VL, as listed by the source, chain 2 of 2, one chain of several): as the sequence (VL, as listed by the source limits assumed) above, with L4M, S35N counted along it

[4] = molecular target: B5; test: competitive ELISA, Fab 1621 on coated BSA-hGhrelin; compound 0.2 ug/ml
Experimental: as §1, §2, §3
Target sequence in this assay (VL, as listed by the source limits assumed, chain 2 of 2, one chain of several): as the sequence (VL, as listed by the source limits assumed) above

[5] = molecular target: B4; test: competitive ELISA, Fab 1181 on coated BSA-hGhrelin; compound 0 (baseline, no compound)
Experimental: as §1, §2, §3

[6] = molecular target: B5; test: competitive ELISA, Fab 1621 on coated BSA-hGhrelin; compound 1 ug/ml
Experimental: as §1, §2, §3
Target sequence in this assay (VL, as listed by the source limits assumed, chain 2 of 2, one chain of several): as the sequence (VL, as listed by the source limits assumed) above

[7] = molecular target: B4; test: competitive ELISA, Fab 1181 on coated BSA-hGhrelin; compound 0.2 ug/ml
Experimental: as §1, §2, §3
Target sequence in this assay (VL, as listed by the source, chain 2 of 2, one chain of several): as the sequence (VL, as listed by the source limits assumed) above, with L4M, S35N counted along it

[8] = molecular target: B5; test: competitive ELISA, Fab 1621 on coated BSA-hGhrelin; compound 5 ug/ml
Experimental: as §1, §2, §3
Target sequence in this assay (VL, as listed by the source limits assumed, chain 2 of 2, one chain of several): as the sequence (VL, as listed by the source limits assumed) above

[9] = molecular target: B4; test: competitive ELISA, Fab 1181 on coated BSA-hGhrelin; compound 1 ug/ml
Experimental: as §1, §2, §3
Target sequence in this assay (VL, as listed by the source, chain 2 of 2, one chain of several): as the sequence (VL, as listed by the source limits assumed) above, with L4M, S35N counted along it

[10] = molecular target: T1, peptide spanning amino acids 14-28 of …; test: FLIPR assay, peptide competes with hGhrelin for the Fab (Fab 5 nM)
Experimental: (§4) The final concentration of the sample solution is 0.75% BSA, and calcium at approximately the same concentration as in the FLIPR buffer. Fifty microliters of the sample solution is added to the 50 μl FLIPR buffer in the well with the AV12 cells. […] The cell plate is shaken for 15 seconds prior to loading it into the FLIPR instrument. Test samples or control samples are added to each well, and read by a Fluorometric Imaging Plate Reader (Molecular Devices).

[11] = molecular target: T1, peptide spanning amino acids 14-28 of …; test: FLIPR assay, peptide competes with hGhrelin for the Fab (Fab 20 nM)
Experimental: as §4

[12] = molecular target: B6; test: competitive ELISA on coated BSA-hGhrelin
Experimental: as §1, §2

[13] = molecular target: T2, human ghrelin peptide spanning amino …; test: cell-based or functional assay
[14] = molecular target: T3, human ghrelin peptide 4-16; test: cell-based or functional assay
[15] = molecular target: T4, human ghrelin peptide 4-28; test: cell-based or functional assay
[16] = molecular target: B3; test: cell-based or functional assay
[17] = molecular target: B2; test: FLIPR assay, peptide competes with hGhrelin for the Fab (no reduction means the Fab does not bind the peptide)
[18] = molecular target: B7; test: FLIPR assay, peptide competes with hGhrelin for the Fab
[19] = molecular target: T5, human ghrelin peptide 18-28; test: as above
[20] = molecular target: T6, human ghrelin peptide 13-19; test: as above
[21] = molecular target: T7, human ghrelin peptide 7-16; test: as above
[22] = molecular target: T9, full-length human ghrelin not acylated (human); test: SPR (BIAcore 2000), Fab captured on goat anti-mouse kappa, ghrelin in solution, 25 C
T9 construct: also called hGhrelin (desacyl); des-acyl hGhrelin
Experimental: (§5) The BIAcore® utilizes the optical properties of surface plasmon resonance to detect alterations in protein concentration of interacting molecules within a dextran biosensor matrix. Except where noted, all reagents and materials are purchased from BIAcore® AB (Upsala, Sweden). All measurements are performed at 25° C. Samples containing rat or human ghrelin (full length, acylated) are dissolved in HBS-EP buffer (150 mM sodium chloride, 3 mM EDTA, 0.005% (w/v) surfactant P-20, and 10 mM HEPES, pH 7.4). A capture antibody, goat anti-mouse Kappa (Southern Biotechnology, Inc), is immobilized onto flow cells using amine-coupling chemistry. Flow cells (1-4) are activated for 7 minutes with a 1:1 mixture of 0.1 M N-hydroxysuccinimide and 0.1 M 3-(N,N-dimethylamino)propyl-N-ethylcarbodiimide at a flow rate of 10 μl/min. Goat anti-mouse Kappa (30 μg/mL in 10 mM sodium acetate, pH 4.5) is manually injected over all 4 flow cells at a flow rate of 10 μL/min. The surface density is monitored and additional goat anti-mouse Kappa is injected if needed to individual cell until all flow cells reach a surface density of 4500-5000 response units (RU). Surfaces are blocked with a 7 minute injection of 1 M ethanolamine-HCl, pH 8.5(10 μl/min). To ensure complete removal of any noncovalently bound goat anti-mouse Kappa, 15 μL of 10 mM glycine, pH 1.5 is injected twice. Running buffer used for kinetic experiments contained 10 mM HEPES, pH 7.4, 150 mM NaCl, 0.005% P20.
(§6) Collection of kinetic binding data is performed at maximum flow rate (100 μL/min) and a low surface density to minimize mass transport effects.

[23] = molecular target: B1; test: as above
Experimental: as §5, §6

[24] = molecular target: B3; test: as above
Experimental: as §5, §6

T8 sequence (Q92847 whole entry): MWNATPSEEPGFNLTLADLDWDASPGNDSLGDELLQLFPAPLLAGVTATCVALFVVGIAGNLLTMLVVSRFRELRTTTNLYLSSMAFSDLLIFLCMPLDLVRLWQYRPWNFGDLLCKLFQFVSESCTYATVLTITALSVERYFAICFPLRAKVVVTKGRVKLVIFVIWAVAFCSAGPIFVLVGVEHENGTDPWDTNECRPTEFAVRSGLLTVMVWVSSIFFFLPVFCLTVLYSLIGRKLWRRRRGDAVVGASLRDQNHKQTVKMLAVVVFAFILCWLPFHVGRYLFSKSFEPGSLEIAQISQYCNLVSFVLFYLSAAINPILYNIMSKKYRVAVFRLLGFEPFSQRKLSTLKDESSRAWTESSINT

Row | Ave. OD [2] | Ave. OD [3] | Ave. OD [4] | Ave. OD [5] | Ave. OD [6] | Ave. OD [7] | Ave. OD [8] | Ave. OD [9] | Binder | further results
1 | 1.17 OD | 0.178 OD | 0.999 OD | 1.23 OD | 0.932 OD | 1.12 OD | 0.429 OD | 0.883 OD | B1 | binding result [1]: binds
2 | – | – | – | – | – | – | – | – | Fab 4641 (Fab, V domains shown, Mouse Fab) VH: QVQLQQSRPELVRPGASVKMSCRASAYTFTTYWMHWVRQRPGQGLEWIGMIDPSNSDTWLNQKFKDKATLNVDRSSNTAYMQLTSLTSEDSAVYYCARTGFDYWGQGTTLTVSS VL: DVVMTQTPLSLPVSLGDQASISCRSSQSLVHSDGNTYLHWYLQKPGQSPKLLIYKVSNRFSGVPDRFSGSGSGTDFTLKISRVEAEDLGVYFCSQSTYVSYTFGGGTKLEIKR | binding result [10]: no binding (tested: 100 nM peptide)
3 | – | – | – | – | – | – | – | – | Fab 1451 (Fab, V domains shown, Mouse Fab) VH: QVHVKQSGPELVRPGASVKMSCKASAYTFTTYWMHWVKQRPGQGLEWIGMIDPYNSETWLNQKFKDKATLNVDRSSNTAYMKLSSLTSEDSAVYYCARTGFDYWGQGTTLTVSS VL: DVVLTQTPLSLPVSLGDQASISCRSSQSLVHSNGNTYLHWYLQKPGQSPKLLIYKVSNRFSGVPDRFSGSGSGTDFTLKISRVEAEDLGVYFCSQSTHVPYTFGGGTKLEIKR | binding result [11]: no binding (tested: 100 nM peptide)
4 | – | – | – | – | – | – | – | – | GSSFLSPEHQRVQ (also: acyl (position and group not restated), also called human ghrelin 1-13 acyl; active human ghrelin analog) [Human 1-13 acyl] | binding result [1]: binds
5 | 1.17 OD | 1.18 OD | 1.38 OD | 1.23 OD | 1.33 OD | 1.22 OD | 1.26 OD | 1.19 OD | B2 | –
6 | 1.17 OD | 0.0445 OD | 0.131 OD | 1.23 OD | 0.0495 OD | 0.0784 OD | 0.043 OD | 0.0497 OD | B3 | –
7 | – | – | – | – | – | – | – | – | B4 | binding result [12]: no binding (tested: 5 µg/ml); reduction of Fab inhibition of hGhrelin (0.83 nM), FLIPR calcium assay; peptide 100 nM, Fab 0.95 nM [13]: 74%; reduction of Fab inhibition of hGhrelin (0.83 nM), FLIPR calcium assay; peptide 100 nM, Fab 0.95 nM [14]: 30%; reduction of Fab inhibition of hGhrelin (0.83 nM), FLIPR calcium assay; peptide 100 nM, Fab 0.95 nM [15]: 80%; IC50 (nM), Inhibition of hGhrelin at 0.8 nM, FLIPR calcium assay [16]: 0.8 nM; binding result [17]: no binding (tested: 100 nM peptide); binding result [18]: no binding (tested: 100 nM peptide); binding result [19]: no binding (tested: 100 nM peptide); binding result [20]: no binding (tested: 100 nM peptide); binding result [21]: no binding (tested: 100 nM peptide); Kd [22]: 0.434 nM; Kd [23]: 10.4 nM; Kd [24]: 0.202 nM; kon [24]: 3.39e+06 M⁻¹ s⁻¹
8 | – | – | – | – | – | – | – | – | B5 | binding result [12]: no binding (tested: 5 µg/ml); IC50 (nM), Inhibition of hGhrelin at 0.8 nM, FLIPR calcium assay [16]: 1.64 nM; binding result [17]: no binding (tested: 100 nM peptide); binding result [18]: no binding (tested: 100 nM peptide); binding result [19]: no binding (tested: 100 nM peptide); binding result [20]: no binding (tested: 100 nM peptide); binding result [21]: no binding (tested: 100 nM peptide); Kd [22]: 1.74 nM; Kd [23]: 5.7 nM; Kd [24]: 0.68 nM
9 | 1.17 OD | 1.21 OD | 1.36 OD | 1.23 OD | 1.32 OD | 1.26 OD | 1.22 OD | 1.22 OD | B6 | –
10 | 1.17 OD | 1.11 OD | 1.04 OD | 1.23 OD | 1.05 OD | 1.13 OD | 1.02 OD | 1.17 OD | B7 | –
